Consider three variants from paper PMC12674617 (2025).

Sequences and labels used below:
B1: full-length BICD2 tagged on the C-terminus with mini-TurboID (BICD2-mTrbo) [human] / KIF5B [human (endogenous in HEK293)] (parent complex)
chain 1: MSAPSEEEEYARLVMEAQPEWLRAEVKRLSHELAETTREKIQAAEYGLAVLEEKHQLKLQFEELEVDYEAIRSEMEQLKEAFGQAHTNHKKVAADGESREESLIQESASKEQYYVRKVLELQTELKQLRNVLTNTQSENERLASVAQELKEINQNVEIQRGRLRDDIKEYKFREARLLQDYSELEEENISLQKQVSVLRQNQVEFEGLKHEIKRLEEETEYLNSQLEDAIRLKEISERQLEEALETLKTEREQKNSLRKELSHYMSINDSFYTSHLHVSLDGLKFSDDAAEPNNDAEALVNGFEHGGLAKLPLDNKTSTPKKEGLAPPSPSLVSDLLSELNISEIQKLKQQLMQMEREKAGLLATLQDTQKQLEHTRGSLSEQQEKVTRLTENLSALRRLQASKERQTALDNEKDRDSHEDGDYYEVDINGPEILACKYHVAVAEAGELREQLKALRSTHEAREAQHAEEKGRYEAEGQALTEKVSLLEKASRQDRELLARLEKELKKVSDVAGETQGSLSVAQDELVTFSEELANLYHHVCMCNNETPNRVMLDYYREGQGGAGRTSPGGRTSPEARGRRSPILLPKGLLAPEAGRADGGTGDSSPSPGSSLPSPLSDPRREPMNIYNLIAIIRDQIKHLQAAVDRTTELSRQRIASQELGPAVDKDKEALMEEILKLKSLLSTKREQITTLRTVLKANKQTAEVALANLKSKYENEKAMVTETMMKLRNELKALKEDAATFSSLRAMFATRCDEYITQLDEMQRQLAAAEDEKKTLNSLLRMAIQQKLALTQRLELLELDHEQTRRGRAKAAPKTKPATPSL
chain 2: MADLAECNIKVMCRFRPLNESEVNRGDKYIAKFQGEDTVVIASKPYAFDRVFQSSTSQEQVYNDCAKKIVKDVLEGYNGTIFAYGQTSSGKTHTMEGKLHDPEGMGIIPRIVQDIFNYIYSMDENLEFHIKVSYFEIYLDKIRDLLDVSKTNLSVHEDKNRVPYVKGCTERFVCSPDEVMDTIDEGKSNRHVAVTNMNEHSSRSHSIFLINVKQENTQTEQKLSGKLYLVDLAGSEKVSKTGAEGAVLDEAKNINKSLSALGNVISALAEGSTYVPYRDSKMTRILQDSLGGNCRTTIVICCSPSSYNESETKSTLLFGQRAKTIKNTVCVNVELTAEQWKKKYEKEKEKNKILRNTIQWLENELNRWRNGETVPIDEQFDKEKANLEAFTVDKDITLTNDKPATAIGVIGNFTDAERRKCEEEIAKLYKQLDDKDEEINQQSQLVEKLKTQMLDQEELLASTRRDQDNMQAELNRLQAENDASKEEVKEVLQALEELAVNYDQKSQEVEDKTKEYELLSDELNQKSATLASIDAELQKLKEMTNHQKKRAAEMMASLLKDLAEIGIAVGNNDVKQPEGTGMIDEEFTVARLYISKMKSEVKTMVKRCKQLESTQTESNKKMEENEKELAACQLRISQHEAKIKSLTEYLQNVEQKKRQLEESVDALSEELVQLRAQEKVHEMEKEHLNKVQTANEVKQAVEQQIQSHRETHQKQISSLRDEVEAKAKLITDLQDQNQKMMLEQERLRVEHEKLKATDQEKSRKLHELTVMQDRREQARQDLKGLEETVAKELQTLHNLRKLFVQDLATRVKKSAEIDSDDTGGSAAQKQKISFLENNLEQLTKVHKQLVRDNADLRCELPKLEKRLRATAERVKALESALKEAKENASRDRKRYQQEVDRIKEAVRSKNMARRGHSAQIAKPIRPGQHPAASPTHPSAIRGGGAFVQNSQPVAVRGGGGKQV

Variants of B1 are the subject of the assay. Description: proximity biotinylation, streptavidin bead purification, western blot quantification; parent: 1; read off a plot. (Immunoblotting shows a protein as a band on a membrane.)
With chain 1 R747C, the ratio to parent is around 0.5.
chain 1 R694C: the ratio to parent is around 0.78.
In the case of chain 1 N188T, the ratio to parent is around 0.86.
